Data as given in article PMC9482650, “Quantitative fragmentomics allow affinity mapping of interactomes” (Nature Communications, 2022).

Legend:
Assay in all cases: holdup assay
Parameters in all cases: key: below the threshold = too weak to quantify, mostly under pKd 3.1 to 4
Details in all cases: plain residues with an end cap or a label only (N-terminal biotin on a linker: ado-ado)
Inadl_10, Q8NI35 = molecular target: Inadl_10, Q8NI35
TX1BP3, O14907 = molecular target: T1, TX1BP3, O14907
T1 sequence (O14907 10-122, limits assumed, looked up): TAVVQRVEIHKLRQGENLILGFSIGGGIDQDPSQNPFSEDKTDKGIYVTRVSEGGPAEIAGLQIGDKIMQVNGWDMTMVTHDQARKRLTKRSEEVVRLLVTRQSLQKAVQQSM

DLG1_1, Q12959 = molecular target: DLG1_1, Q12959
PTPN3, P26045 = molecular target: PTPN3, P26045
FRMPD1, Q5SYB0 = molecular target: T2, FRMPD1, Q5SYB0
T2 sequence (Q5SYB0 52-145, limits assumed, looked up): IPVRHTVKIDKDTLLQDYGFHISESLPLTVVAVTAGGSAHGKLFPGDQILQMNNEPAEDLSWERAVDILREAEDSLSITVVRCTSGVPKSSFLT

MAST2, Q6P0Q8 = molecular target: MAST2, Q6P0Q8
GORASP2, Q9H8Y8 = molecular target: GORASP2, Q9H8Y8
NHERF4_4, Q86UT5 = molecular target: NHERF4_4, Q86UT5
MPDZ_12, O75970 = molecular target: T3, MPDZ_12, O75970
T3 sequence (O75970 1857-1958, limits assumed, looked up): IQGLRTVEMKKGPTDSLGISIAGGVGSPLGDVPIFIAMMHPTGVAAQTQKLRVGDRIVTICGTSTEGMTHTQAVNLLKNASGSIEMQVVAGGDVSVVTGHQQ

Inadl_5, Q8NI35 = molecular target: Inadl_5, Q8NI35
MAGI2_6, Q86UL8 = molecular target: MAGI2_6, Q86UL8
GRID2IP_1, A4D2P6 = molecular target: GRID2IP_1, A4D2P6
ARHGEF11, O15085 = molecular target: T4, ARHGEF11, O15085
T4 sequence (O15085 42-136, limits assumed, looked up): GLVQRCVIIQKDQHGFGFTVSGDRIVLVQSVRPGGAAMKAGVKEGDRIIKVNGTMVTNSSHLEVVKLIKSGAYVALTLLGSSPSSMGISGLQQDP

DLG3_2, Q92796 = molecular target: T5, DLG3_2, Q92796
T5 sequence (Q92796 221-321, limits assumed, looked up): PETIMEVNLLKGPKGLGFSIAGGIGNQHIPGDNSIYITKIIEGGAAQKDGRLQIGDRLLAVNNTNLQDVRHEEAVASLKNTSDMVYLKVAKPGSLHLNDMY

Inadl_9, Q8NI35 = molecular target: Inadl_9, Q8NI35
Inadl_1, Q8NI35 = molecular target: Inadl_1, Q8NI35
GRASP, Q7Z6J2 = molecular target: GRASP, Q7Z6J2
PDZRN4_1, Q6ZMN7 = molecular target: PDZRN4_1, Q6ZMN7
PCLO, Q9Y6V0 = molecular target: T6, PCLO, Q9Y6V0
T6 sequence (Q9Y6V0 4491-4600, limits assumed, looked up): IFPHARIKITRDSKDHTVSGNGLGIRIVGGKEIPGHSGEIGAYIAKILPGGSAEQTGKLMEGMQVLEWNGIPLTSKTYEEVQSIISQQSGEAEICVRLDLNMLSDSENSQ

DLG2_3, Q15700 = molecular target: DLG2_3, Q15700
GIPC2, Q8TF65 = molecular target: GIPC2, Q8TF65
MAGI2_3, Q86UL8 = molecular target: MAGI2_3, Q86UL8
SHANK1, Q9Y566 = molecular target: T7, SHANK1, Q9Y566
T7 sequence (Q9Y566 658-767, limits assumed, looked up): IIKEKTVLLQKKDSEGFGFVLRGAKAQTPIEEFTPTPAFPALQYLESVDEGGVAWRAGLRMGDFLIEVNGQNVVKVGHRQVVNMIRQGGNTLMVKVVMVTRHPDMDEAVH

MAGI2_2, Q86UL8 = molecular target: MAGI2_2, Q86UL8
LNX1_1, Q8TBB1 = molecular target: LNX1_1, Q8TBB1
PTPN13_1, Q12923 = molecular target: T8, PTPN13_1, Q12923
T8 sequence (Q12923 1088-1188, limits assumed, looked up): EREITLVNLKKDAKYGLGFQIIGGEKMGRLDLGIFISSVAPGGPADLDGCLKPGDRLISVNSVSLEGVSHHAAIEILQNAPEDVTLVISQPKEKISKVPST

DLG5_1, Q8TDM6 = molecular target: DLG5_1, Q8TDM6
NHERF2_2, Q15599 = molecular target: NHERF2_2, Q15599
LIN7A, O14910 = molecular target: T9, LIN7A, O14910
T9 sequence (O14910 103-200, limits assumed, looked up): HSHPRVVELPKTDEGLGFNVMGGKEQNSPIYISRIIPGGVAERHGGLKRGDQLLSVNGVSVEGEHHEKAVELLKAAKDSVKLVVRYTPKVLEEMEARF

Chain of DLG5_1, Q8TDM6 (Q8TDM6 617-713): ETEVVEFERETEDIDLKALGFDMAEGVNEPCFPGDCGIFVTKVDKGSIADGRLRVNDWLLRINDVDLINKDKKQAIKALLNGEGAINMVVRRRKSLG
Chain of MAST2, Q6P0Q8 (Q6P0Q8 1099-1202): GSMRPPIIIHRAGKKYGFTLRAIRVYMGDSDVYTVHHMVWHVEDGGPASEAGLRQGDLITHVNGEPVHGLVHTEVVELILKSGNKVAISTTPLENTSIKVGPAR
Chain of GRID2IP_1, A4D2P6 (A4D2P6 1-87): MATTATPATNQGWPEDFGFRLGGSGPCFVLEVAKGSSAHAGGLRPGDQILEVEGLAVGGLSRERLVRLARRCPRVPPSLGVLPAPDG
Chain of Inadl_1, Q8NI35 (Q8NI35 113-229): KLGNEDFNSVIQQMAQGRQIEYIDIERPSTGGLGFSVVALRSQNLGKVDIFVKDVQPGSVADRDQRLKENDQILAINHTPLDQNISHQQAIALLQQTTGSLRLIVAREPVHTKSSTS
Chain of MAGI2_3, Q86UL8 (Q86UL8 600-682): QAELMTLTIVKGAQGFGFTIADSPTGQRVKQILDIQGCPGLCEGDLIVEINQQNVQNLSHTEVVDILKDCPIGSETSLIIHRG
Chain of MAGI2_6, Q86UL8 (Q86UL8 1141-1229): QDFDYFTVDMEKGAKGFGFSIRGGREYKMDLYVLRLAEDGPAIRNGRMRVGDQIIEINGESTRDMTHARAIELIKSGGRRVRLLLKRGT
Chain of Inadl_10, Q8NI35 (Q8NI35 1673-1763): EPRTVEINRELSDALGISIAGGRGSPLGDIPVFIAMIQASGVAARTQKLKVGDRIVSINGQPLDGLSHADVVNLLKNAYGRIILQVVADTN
Chain of NHERF2_2, Q15599 (Q15599 142-238): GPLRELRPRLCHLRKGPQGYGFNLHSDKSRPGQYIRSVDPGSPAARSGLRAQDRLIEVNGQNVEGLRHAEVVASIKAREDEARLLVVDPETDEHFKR
Chain of PTPN3, P26045 (P26045 505-587): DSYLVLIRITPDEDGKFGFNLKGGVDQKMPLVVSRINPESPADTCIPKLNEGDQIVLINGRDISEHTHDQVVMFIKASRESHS
Chain of LNX1_1, Q8TBB1 (Q8TBB1 261-371): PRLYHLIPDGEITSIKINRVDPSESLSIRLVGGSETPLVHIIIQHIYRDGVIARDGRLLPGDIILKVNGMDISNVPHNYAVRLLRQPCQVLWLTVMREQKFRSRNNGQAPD
Chain of NHERF4_4, Q86UT5 (Q86UT5 464-550): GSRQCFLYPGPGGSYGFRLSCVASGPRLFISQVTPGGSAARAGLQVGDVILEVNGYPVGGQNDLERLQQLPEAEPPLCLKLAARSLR
Chain of Inadl_5, Q8NI35 (Q8NI35 673-780): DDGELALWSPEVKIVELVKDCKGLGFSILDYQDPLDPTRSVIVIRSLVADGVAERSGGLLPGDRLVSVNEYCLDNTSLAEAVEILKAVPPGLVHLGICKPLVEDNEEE
Chain of PDZRN4_1, Q6ZMN7 (Q6ZMN7 213-318): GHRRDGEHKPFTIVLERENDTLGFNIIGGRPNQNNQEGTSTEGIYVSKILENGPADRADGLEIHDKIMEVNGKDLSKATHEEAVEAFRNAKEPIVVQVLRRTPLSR
Chain of GIPC2, Q8TF65 (Q8TF65 112-203): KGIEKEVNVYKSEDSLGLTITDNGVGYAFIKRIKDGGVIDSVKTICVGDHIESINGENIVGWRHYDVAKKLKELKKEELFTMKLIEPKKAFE
Chain of MAGI2_2, Q86UL8 (Q86UL8 410-522): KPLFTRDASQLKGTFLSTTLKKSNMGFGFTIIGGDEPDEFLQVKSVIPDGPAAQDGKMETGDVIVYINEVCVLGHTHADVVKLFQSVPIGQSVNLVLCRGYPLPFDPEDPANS
Chain of GRASP, Q7Z6J2 (Q7Z6J2 96-193): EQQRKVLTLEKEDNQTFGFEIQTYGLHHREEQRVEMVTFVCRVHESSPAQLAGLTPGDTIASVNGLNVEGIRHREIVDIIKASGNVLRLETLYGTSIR
Chain of Inadl_9, Q8NI35 (Q8NI35 1530-1615): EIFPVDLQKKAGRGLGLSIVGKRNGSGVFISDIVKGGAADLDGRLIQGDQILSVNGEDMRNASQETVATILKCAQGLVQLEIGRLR

In the case of YNNCLEILRV [DCAF7, P61962], the pKd (Inadl_10, Q8NI35) is reported as “below the threshold”, the pKd (TX1BP3, O14907) is reported as “below the threshold” and the pKd (DLG1_1, Q12959) is reported as “below the threshold”. For the same binder, the pKd (PTPN3, P26045) was “below the threshold”, the pKd (FRMPD1, Q5SYB0) was “below the threshold” and the pKd (MAST2, Q6P0Q8) was 4.53. The pKd (GORASP2, Q9H8Y8) was 5.55, the pKd (NHERF4_4, Q86UT5) was “below the threshold” and the pKd (MPDZ_12, O75970) was “below the threshold”. For the same binder, the pKd (Inadl_5, Q8NI35) was “below the threshold”, the pKd (MAGI2_6, Q86UL8) was “below the threshold” and the pKd (GRID2IP_1, A4D2P6) was “below the threshold”. For the same binder, the pKd (ARHGEF11, O15085) was 3.78, the pKd (DLG3_2, Q92796) was “below the threshold” and the pKd (Inadl_9, Q8NI35) was 3.57. The pKd (Inadl_1, Q8NI35) was “below the threshold”, the pKd (GRASP, Q7Z6J2) was 3.9 and the pKd (PDZRN4_1, Q6ZMN7) was “below the threshold”. The pKd (PCLO, Q9Y6V0) was “below the threshold”, the pKd (DLG2_3, Q15700) was “below the threshold” and the pKd (GIPC2, Q8TF65) was “below the threshold”. The pKd (MAGI2_3, Q86UL8) was “below the threshold”, the pKd (SHANK1, Q9Y566) was “below the threshold” and the pKd (MAGI2_2, Q86UL8) was “below the threshold”. The pKd (LNX1_1, Q8TBB1) was “below the threshold”, the pKd (PTPN13_1, Q12923) was “below the threshold” and the pKd (DLG5_1, Q8TDM6) was “below the threshold”. For the same binder, the pKd (NHERF2_2, Q15599) was “below the threshold” and the pKd (LIN7A, O14910) was “below the threshold”.

For RRLPGKETMA [GRIK2, Q13002], the pKd (Inadl_10, Q8NI35) was “below the threshold”, the pKd (TX1BP3, O14907) was “below the threshold” and the pKd (DLG1_1, Q12959) was “below the threshold”. The pKd (PTPN3, P26045) was “below the threshold”, the pKd (FRMPD1, Q5SYB0) was “below the threshold” and the pKd (MAST2, Q6P0Q8) was “below the threshold”. The pKd (GORASP2, Q9H8Y8) was 3.55, the pKd (NHERF4_4, Q86UT5) was “below the threshold” and the pKd (MPDZ_12, O75970) was “below the threshold”. For the same binder, the pKd (Inadl_5, Q8NI35) was “below the threshold”, the pKd (MAGI2_6, Q86UL8) was “below the threshold” and the pKd (GRID2IP_1, A4D2P6) was “below the threshold”. For the same binder, the pKd (ARHGEF11, O15085) was “below the threshold”, the pKd (DLG3_2, Q92796) was 4.18 and the pKd (Inadl_9, Q8NI35) was “below the threshold”. The pKd (Inadl_1, Q8NI35) was “below the threshold”, the pKd (GRASP, Q7Z6J2) was “below the threshold” and the pKd (PDZRN4_1, Q6ZMN7) was “below the threshold”. For the same binder, the pKd (PCLO, Q9Y6V0) was “below the threshold”, the pKd (DLG2_3, Q15700) was 3.8 and the pKd (GIPC2, Q8TF65) was “below the threshold”. The pKd (MAGI2_3, Q86UL8) was “below the threshold”, the pKd (SHANK1, Q9Y566) was “below the threshold” and the pKd (MAGI2_2, Q86UL8) was “below the threshold”. For the same binder, the pKd (LNX1_1, Q8TBB1) was “below the threshold”, the pKd (PTPN13_1, Q12923) was “below the threshold” and the pKd (DLG5_1, Q8TDM6) was “below the threshold”. The pKd (NHERF2_2, Q15599) was “below the threshold” and the pKd (LIN7A, O14910) was “below the threshold”.

In the case of LGRSTPQSEV [DGKH, Q86XP1], the pKd (Inadl_10, Q8NI35) is reported as “below the threshold”, the pKd (TX1BP3, O14907) is reported as 4.03 and the pKd (DLG1_1, Q12959) is reported as “below the threshold”. For the same binder, the pKd (PTPN3, P26045) was 4.12, the pKd (FRMPD1, Q5SYB0) was “below the threshold” and the pKd (MAST2, Q6P0Q8) was 4.85. For the same binder, the pKd (GORASP2, Q9H8Y8) was “below the threshold”, the pKd (NHERF4_4, Q86UT5) was “below the threshold” and the pKd (MPDZ_12, O75970) was “below the threshold”. For the same binder, the pKd (Inadl_5, Q8NI35) was “below the threshold”, the pKd (MAGI2_6, Q86UL8) was “below the threshold” and the pKd (GRID2IP_1, A4D2P6) was “below the threshold”. The pKd (ARHGEF11, O15085) was 4.15, the pKd (DLG3_2, Q92796) was “below the threshold” and the pKd (Inadl_9, Q8NI35) was “below the threshold”. For the same binder, the pKd (Inadl_1, Q8NI35) was “below the threshold”, the pKd (GRASP, Q7Z6J2) was 3.51 and the pKd (PDZRN4_1, Q6ZMN7) was “below the threshold”. The pKd (PCLO, Q9Y6V0) was “below the threshold”, the pKd (DLG2_3, Q15700) was “below the threshold” and the pKd (GIPC2, Q8TF65) was “below the threshold”. For the same binder, the pKd (MAGI2_3, Q86UL8) was “below the threshold”, the pKd (SHANK1, Q9Y566) was “below the threshold” and the pKd (MAGI2_2, Q86UL8) was 3.58. The pKd (LNX1_1, Q8TBB1) was 4.01, the pKd (PTPN13_1, Q12923) was “below the threshold” and the pKd (DLG5_1, Q8TDM6) was “below the threshold”. For the same binder, the pKd (NHERF2_2, Q15599) was “below the threshold” and the pKd (LIN7A, O14910) was “below the threshold”.
